Target: rat Kv2.2-GFP (rat) (UniProt Q63099)

GxTX-594 (guangxitoxin-1E Ser13Cys, Met35 norleucine, conjugated to Alexa 594) (from UniProt P84835 1-36) (peptide)
Pearson correlation coefficient (colocalization with GFP): 0.8

Reference: doi:10.1101/541805
